The test addresses human G protein-coupled receptor 182 (GPR182) (human, UniProt O15218 1-404).

human G protein-coupled receptor 182 (GPR182), sequence (O15218 whole entry): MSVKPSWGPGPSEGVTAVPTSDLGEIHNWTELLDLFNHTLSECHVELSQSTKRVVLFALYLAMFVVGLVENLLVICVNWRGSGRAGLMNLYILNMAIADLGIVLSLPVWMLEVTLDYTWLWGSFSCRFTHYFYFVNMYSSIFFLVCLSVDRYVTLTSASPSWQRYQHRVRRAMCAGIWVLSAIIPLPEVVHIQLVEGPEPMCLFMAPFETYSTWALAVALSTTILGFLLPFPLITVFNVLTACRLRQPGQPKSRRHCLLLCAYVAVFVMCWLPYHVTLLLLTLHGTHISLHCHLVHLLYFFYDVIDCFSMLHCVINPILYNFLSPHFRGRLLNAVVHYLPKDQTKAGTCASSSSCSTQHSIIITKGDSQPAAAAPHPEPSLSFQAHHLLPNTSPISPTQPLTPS

B1: human CXCL13, unlabeled (ligand)
chain: VLEVYYTSLRCRCVQESSVFIPRRFIDRIQILPRGNGCPRKEIIVWKKNKSIVCVDPQAEWIQRMMEVLRKRSSSTLPVPVFKRKIP
With B1, the affinity, expressed as Ki, was 9 nM.

B2: human CCL19, unlabeled (ligand)
chain: GTNDAEDCCLSVTQKPIPGYIVRNFHYLLIKDGCRVPAVVFTTLRGRQLCAPPDQPWVERIIQRLQRTSAKMKRRSS
As for B2, affinity was put at a Ki of 260 nM.
